Measurements: patent US20110009342A1, “USES OF PDCD5 POLYPEPTIDE FOR TUMOR CHEMOTHERAPY AND ORGAN PROTECTION” (priority 2008, published 2011)

Tests used:
[1] = tested on: SiHa cervical cancer cells; settings: Zhang et al. 2004; cited from earlier work
K562 cells = experiment: FITC/Annexin-V apoptosis by flow cytometry, IDR; format: cell-based
Method: Methods: Cell staining with FITC/Annexin-V and cell apoptosis in vitro detection by flow cytometry: K562 cells (ATCC) were maintained in RPMI 1640 (Life Technologies, USA) supplemented with 10% FBS (Hyclone, USA), and were plated in 24-well culture dishes to a density of 2×10^5 cells/mL. rhPDCD5 protein was added with a final concentration of 7.5 μg/mL, 15 μg/mL and 30 μg/mL, respectively, in each well. Chemotherapeutic drug IDR was then added with a final concentration of 56 ng/mL and RPMI 1640 with 10% FBS was added to make the system to 1 mL. After 24 hours of co-culture, the cells were stained with FITC/Annexin-V (Baosai company) and apoptosis was detected by flow cytometry.

U937 xenografts = experiment: U937 nude mice xenograft model, DNR; format: in vivo, BALB/c nude mice; settings: fifteenth day; rhPDCD5 40 μg into the tumor, DNR 40 μg intraperitoneal, once a day for 8 days
Method: Methods: U937 nude mice xenograft model: BALB/c nude mice (5-6 weeks of age) were pretreated with cyclophosphamide (100 mg/kg, injected intraperitoneally once a day for two consecutive days). On day 3, 1×10^7 (100 μl) of U937 cells were subcutaneously (s.c.) injected into a single flank of each of the mice. The treatments began on day 7 after inoculation when the average tumor diameter reached about 5 mm. The mice were divided randomly into four groups (n=6, i.e., six mice in each group) and treated with normal saline (NS), rhPDCD5 (40 μg, locally injected into the tumor), DNR (40 μg, intraperitoneal) or DNR (40 μg) plus rhPDCD5 (40 μg), once a day for 8 consecutive days.
Tumor volume (V) was determined every other day by vernier caliper measurements and calculated based on the equation of V=ab^2/2, where “a” refers to a long tumor diameter and “b” refers to a short diameter, then tumor volume growth curve was drawn. The percentage of reductions in tumor growth was calculated using the formula: [1-(Tf-Ti)/(Cf-Ci)]×100, where Tf and Ti are the final and initial mean tumor volumes, respectively, of the group receiving a specific treatment, and Cf and Ci are the final and initial mean tumor volumes, respectively, of the NS control group. After the treatment, tumors were collected and weighed and tissues were sectioned and processed by histological hematoxylin and eosin (H&E) staining. Results were statistically analyzed using SPSS 13.0. The measurements were expressed as the mean±standard deviation. Data were analyzed by the single-factor ANOVA and Student's t test and are presented as mean±standard deviation (SD). P<0.05 was considered statistically significant.

Raji cells = experiment: FITC/Annexin-V apoptosis by flow cytometry, DNR; format: cell-based
Method: Methods: Raji cells were cultured in RPMI 1640 medium (Life Technologies, USA) supplemented with 10% Fetal Bovine Serum (FBS, Hyclone, USA). The cells were seeded in 24-well plates with 2×10^5 cells per well. rhPDCD5 was added to each well and the final concentrations were 0 μg/mL, 2.5 μg/mL and 5 μg/mL, respectively. Subsequently, DNR was added and the final concentrations were 0 μg/mL and 0.05 μg/mL, and RPMI 1640 medium supplemented with 10% FBS was added to ensure the system was brought to 1 mL. After 24 h incubation, the cells were stained with FITC/Annexin-V (Beijing Biosea Biotechnology Co., Ltd.) and the apoptosis was detected by flow cytometry.

U937 cells = experiment: colony forming ability (CFA), DNR; format: cell-based
Method: Analysis for colony forming ability (CFA): U937 cells (ATCC), in the logarithmic phase, were maintained in RPMI 1640 medium supplemented with 20% FBS and 0.4% methyl cellulose (Sigma) by the semi-solid colony culture method and were adjusted to a density of 5×10^3 cells/mL. The cells were divided into control groups and test groups, and each group was assayed in triple wells. U937 cells in the control groups were treated with DNR alone, with the final concentrations of 0 ng/mL and 0.5 ng/mL. U937 cells in the test group were treated with DNR of various concentrations combined with PDCD5 of various concentrations, while the final concentrations of PDCD5 were 0 μg/mL, 0.625 μg/mL, 1.25 μg/mL, and 2.5 μg/mL, respectively. After incubation for 14 days in a 37° C., 5% CO2 and saturatedly humidified incubator, a colony with more than 30 cells was counted by an inverted microscope in order to analyze colony forming ability of each group. The colony forming ability was shown as the ratio of average number of colony in each group versus that of the untreated control group in which the final concentrations of DNR and PDCD5 were 0 μg/mL.

B1: rhPDCD5: recombinant human programmed cell death 5 protein (SEQ ID NO:1) expressed in E. coli and purified (protein, listed as Homo sapiens)
chain: MADEELEALRRQRLAELQAKHGDPGDAAQQEAKHREAEMRNSILAQVLDQSARARLSNLALVKPEKTKAVENYLIQMARYGQLSEKVSEQGLIEILKKVSQQTEKTTTVKFNRRKVMDSDEDDDY
For B1, the “effect on apoptosis induced by IFNγ in vitro” value [1] is listed as “had a sensitized effect on apoptosis of SiHa cervical cancer cells”, the “promotion of apoptosis induced by IDR” value (K562 cells) is listed as “could significantly promote apoptosis” and the “Average size of tumors (mean ± SD)” value (U937 xenografts) is listed as 571.96 ± 237.91 mm^3. For the same molecule, the “enhancement of DNR-induced apoptosis” value (Raji cells) was “can significantly enhance DNR-induced apoptosis”, the “enhancement of inhibition of CFA by DNR” value (U937 cells) was “can significantly enhance the inhibition of CFA by DNR” and the “effect on the CFA of U937 cells” value (U937 cells; rhPDCD5 alone) was “did not have significant effect”.
